The text below walks through data of PMC10634230, “The XIST lncRNA is a sex-specific reservoir of TLR7 ligands in SLE”.

The target in this series is T1, TLR7 Fc chimera (recombinant human TLR7) (Homo sapiens, UniProt Q9NYK1 27-839).
T1 sequence: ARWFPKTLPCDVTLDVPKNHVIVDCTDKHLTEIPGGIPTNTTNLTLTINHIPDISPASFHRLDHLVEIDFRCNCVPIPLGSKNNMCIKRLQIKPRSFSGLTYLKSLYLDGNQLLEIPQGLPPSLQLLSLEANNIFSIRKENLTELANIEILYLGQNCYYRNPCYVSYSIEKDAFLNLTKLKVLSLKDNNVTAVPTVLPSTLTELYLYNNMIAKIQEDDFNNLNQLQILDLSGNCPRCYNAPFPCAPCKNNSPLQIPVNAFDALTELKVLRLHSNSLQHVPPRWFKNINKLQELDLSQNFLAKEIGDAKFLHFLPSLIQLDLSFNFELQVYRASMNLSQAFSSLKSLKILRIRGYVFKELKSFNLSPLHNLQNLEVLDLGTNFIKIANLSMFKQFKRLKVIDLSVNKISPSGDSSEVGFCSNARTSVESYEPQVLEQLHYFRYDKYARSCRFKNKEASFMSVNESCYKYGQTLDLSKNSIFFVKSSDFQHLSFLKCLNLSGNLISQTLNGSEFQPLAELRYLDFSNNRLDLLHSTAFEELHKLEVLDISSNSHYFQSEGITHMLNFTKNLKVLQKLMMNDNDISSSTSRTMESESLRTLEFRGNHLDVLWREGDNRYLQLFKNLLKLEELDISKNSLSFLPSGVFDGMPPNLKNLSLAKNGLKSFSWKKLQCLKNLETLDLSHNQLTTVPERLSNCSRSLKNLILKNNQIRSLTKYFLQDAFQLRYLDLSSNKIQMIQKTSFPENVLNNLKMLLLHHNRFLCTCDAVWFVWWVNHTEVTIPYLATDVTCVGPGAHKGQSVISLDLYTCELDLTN
In words: fluorescence anisotropy; 10 uM HEPES (so in the source), 150 mM NaCl, 300 uM EDTA, 1 mM DTT, 1% glycerol; pH and temperature not stated; FA: 20 nM RNA, 10-300 nM TLR7, 10 min; EMSA: 100 ng RNA, 1 ug TLR7 in 20 uL, 30 min, 5% polyacrylamide gel. The conditions noted are these: protein: commercial; tags: Fc chimera; chain copies: 2; label: 5' FAM.

As a reminder, the Kd is the concentration at which binding is half-saturated.

With GUUGUCAAUGGUCCUUCAA (ssRNA) [XIST1.1], the Kd is 138 nM. Turning to UUGAAGGACAGGUUAAGCU (ssRNA) [RNA9.2a], the dissociation constant (Kd) was found to be 752 nM.

Regarding AGCUUAACCUGUCCUUCAA (ssRNA) [RNA9.2s], the Kd came to 292 nM. Consider AAAAAAAAAAAAAAAAAAA (ssRNA) [polyA], for which the binding result is given as “no binding”.
